Substitutions are numbered along the chain they refer to. Like-named read-outs stand apart in the source and are kept apart here.

The target in assay [1] is T1, human SLC34A2 (human, UniProt O95436 1-690).
T1 sequence (looked up): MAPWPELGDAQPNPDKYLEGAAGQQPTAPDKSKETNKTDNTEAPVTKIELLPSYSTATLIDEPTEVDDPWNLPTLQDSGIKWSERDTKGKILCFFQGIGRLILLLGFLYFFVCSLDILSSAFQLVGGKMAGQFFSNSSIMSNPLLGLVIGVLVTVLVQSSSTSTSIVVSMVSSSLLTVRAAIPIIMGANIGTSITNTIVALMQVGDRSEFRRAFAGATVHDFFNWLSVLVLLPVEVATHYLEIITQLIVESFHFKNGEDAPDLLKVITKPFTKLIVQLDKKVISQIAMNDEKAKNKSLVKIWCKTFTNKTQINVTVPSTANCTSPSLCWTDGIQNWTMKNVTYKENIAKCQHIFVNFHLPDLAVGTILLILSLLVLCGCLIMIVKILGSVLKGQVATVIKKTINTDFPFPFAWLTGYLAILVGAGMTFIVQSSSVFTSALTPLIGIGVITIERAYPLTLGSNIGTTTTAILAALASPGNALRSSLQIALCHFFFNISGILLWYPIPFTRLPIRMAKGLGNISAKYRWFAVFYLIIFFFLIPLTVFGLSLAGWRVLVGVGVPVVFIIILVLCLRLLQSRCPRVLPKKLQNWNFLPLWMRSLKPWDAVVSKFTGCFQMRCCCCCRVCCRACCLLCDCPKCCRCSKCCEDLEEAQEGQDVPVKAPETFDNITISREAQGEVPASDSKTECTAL
Briefly: FACS, MDAH2774 cells.

Assay [2] has as its target T2, mouse SLC34A2 (mouse, UniProt Q9DBP0 1-697).
T2 construct: whole, on cells
T2 sequence (looked up): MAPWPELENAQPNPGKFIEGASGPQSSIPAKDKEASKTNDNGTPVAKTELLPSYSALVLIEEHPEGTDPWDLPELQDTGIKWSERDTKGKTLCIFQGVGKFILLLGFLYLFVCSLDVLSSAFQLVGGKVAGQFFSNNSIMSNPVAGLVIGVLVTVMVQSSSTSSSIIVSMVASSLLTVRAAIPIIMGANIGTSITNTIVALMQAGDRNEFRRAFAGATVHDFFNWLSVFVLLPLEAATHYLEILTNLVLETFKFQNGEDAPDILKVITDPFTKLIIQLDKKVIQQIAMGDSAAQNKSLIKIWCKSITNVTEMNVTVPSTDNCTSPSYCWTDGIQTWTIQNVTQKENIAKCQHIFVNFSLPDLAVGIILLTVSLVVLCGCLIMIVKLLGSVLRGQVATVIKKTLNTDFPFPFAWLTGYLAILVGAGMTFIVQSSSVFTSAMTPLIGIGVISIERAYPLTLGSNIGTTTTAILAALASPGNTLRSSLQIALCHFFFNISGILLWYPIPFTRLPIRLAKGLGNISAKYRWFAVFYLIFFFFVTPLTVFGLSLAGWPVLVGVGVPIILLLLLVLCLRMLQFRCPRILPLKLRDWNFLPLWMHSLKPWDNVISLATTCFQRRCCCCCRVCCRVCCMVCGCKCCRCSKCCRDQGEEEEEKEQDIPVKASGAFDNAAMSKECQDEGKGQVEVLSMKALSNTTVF
Briefly: FACS, HEK293/Mouse SLC34A2 cells. In general terms: Flow cytometry measures light scatter and fluorescence of single cells or particles in a stream.

For assay [3], the target named is T1, human SLC34A2. As to the kind of experiment: cell-based or functional assay.
The target of assay [4] is T3, rat SLC34A2 (rat, UniProt Q9JJ09 1-695).
T3 construct: whole, on cells
T3 sequence (looked up): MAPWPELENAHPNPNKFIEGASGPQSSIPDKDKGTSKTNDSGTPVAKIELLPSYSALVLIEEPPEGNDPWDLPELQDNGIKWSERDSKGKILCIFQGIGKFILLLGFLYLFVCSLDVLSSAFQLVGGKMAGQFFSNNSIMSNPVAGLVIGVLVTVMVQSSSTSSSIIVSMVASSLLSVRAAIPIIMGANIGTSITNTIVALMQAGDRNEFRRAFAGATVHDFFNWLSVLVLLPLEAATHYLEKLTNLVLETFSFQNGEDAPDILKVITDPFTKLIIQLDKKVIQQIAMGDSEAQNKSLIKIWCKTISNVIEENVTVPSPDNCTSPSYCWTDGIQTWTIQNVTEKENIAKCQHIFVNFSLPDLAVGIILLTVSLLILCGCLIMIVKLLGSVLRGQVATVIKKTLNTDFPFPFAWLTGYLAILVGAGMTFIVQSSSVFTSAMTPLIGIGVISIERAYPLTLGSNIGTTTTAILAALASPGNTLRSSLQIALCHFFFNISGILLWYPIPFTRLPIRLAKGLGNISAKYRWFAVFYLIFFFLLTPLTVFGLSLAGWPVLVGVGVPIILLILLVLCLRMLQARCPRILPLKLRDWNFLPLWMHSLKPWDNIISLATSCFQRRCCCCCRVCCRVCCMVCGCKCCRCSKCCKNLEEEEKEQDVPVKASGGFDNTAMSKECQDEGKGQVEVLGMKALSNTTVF
Briefly: FACS, HEK293/Rat SLC34A2 cells.

Assay [5] deals with T1, human SLC34A2. As to the kind of experiment: FACS, HEK293/human SLC34A2 cells.
Assay [6] addresses Cynomolgus SLC34A2 (Cynomolgus). Briefly: FACS, cells expressing Cynomolgus SLC34A2.
The target of another assay is T4, Rhesus SLC34A2 (Rhesus, UniProt F7HDA3 1-690).
T4 construct: whole, on cells
T4 sequence: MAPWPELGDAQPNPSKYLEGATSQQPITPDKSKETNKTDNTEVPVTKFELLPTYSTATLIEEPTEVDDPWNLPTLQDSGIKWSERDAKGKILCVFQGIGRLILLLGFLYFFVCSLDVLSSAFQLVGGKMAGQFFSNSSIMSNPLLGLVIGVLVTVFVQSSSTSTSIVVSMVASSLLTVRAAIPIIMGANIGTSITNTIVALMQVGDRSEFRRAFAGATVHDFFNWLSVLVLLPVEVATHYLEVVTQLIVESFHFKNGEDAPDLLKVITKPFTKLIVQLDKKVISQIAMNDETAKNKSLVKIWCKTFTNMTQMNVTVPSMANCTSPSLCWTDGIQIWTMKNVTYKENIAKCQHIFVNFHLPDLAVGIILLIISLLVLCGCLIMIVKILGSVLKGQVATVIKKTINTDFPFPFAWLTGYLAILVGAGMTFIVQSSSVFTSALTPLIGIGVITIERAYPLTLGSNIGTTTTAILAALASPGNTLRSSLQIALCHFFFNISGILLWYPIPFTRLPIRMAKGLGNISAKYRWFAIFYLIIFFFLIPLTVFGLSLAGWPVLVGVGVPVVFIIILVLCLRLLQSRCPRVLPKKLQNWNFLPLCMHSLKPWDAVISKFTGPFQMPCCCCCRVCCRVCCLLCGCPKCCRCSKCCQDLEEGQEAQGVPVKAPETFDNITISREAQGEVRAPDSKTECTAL
Briefly: FACS, HEK293/Rhesus SLC34A2 cells.

Assay [7] has as its target T2, mouse SLC34A2. As to the kind of experiment: FACS, HEK293/Mouse SLC34A2 cells. The source holds these as a separate data set.
Assay [8] addresses T1, human SLC34A2. As to the kind of experiment: FACS, HEK293/human SLC34A2 cells. The essentials:
(§1)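 First, cells expressing human SLC34A2 are incubated with hu Abs at 4° C. for 60 minutes. Next they are washed twice and stained with fluorescent secondary antibody for 30 minutes at 4° C. Finally, after two further washes, binding is measured by flow cytometry.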

Assay [9] has as its target T1, human SLC34A2. As to the kind of experiment: FACS, OVCAR3 cells. The gist of the method: as §1
The target in assay [10] is T1, human SLC34A2. Briefly: FACS, OVCAR3 cells. The protocol:
The binding of these humanized antibodies to OVCAR3 cells was evaluated as described above, and the results are shown in FIG. 12A-D and Tables 16A-D.
This is another data set of the same source.

Assay [11] has as its target T3, rat SLC34A2. Briefly: FACS, HEK293/Rat SLC34A2 cells. The source holds these as a separate data set.
Assay [12] concerns the target T1, human SLC34A2. As to the kind of experiment: FACS, RMG-1 cells. The gist of the method:
as §1

Assay [13] addresses T1, human SLC34A2. As to the kind of experiment: cell-based or functional assay. The source holds these as a separate data set.

B1: RG-7599 (antibody, INN chains, looked up, V domains shown)
VH: EVQLVESGGGLVQPGGSLRLSCAASGFSFSDFAMSWVRQAPGKGLEWVATIGRVAFHTYYPDSMKGRFTISRDNSKNTLYLQMNSLRAEDTAVYYCARHRGFDVGHFDFWGQGTLVTVSS
VL: DIQMTQSPSSLSASVGDRVTITCRSSETLVHSSGNTYLEWYQQKPGKAPKLLIYRVSNRFSGVPSRFSGSGSGTDFTLTISSLQPEDFATYYCFQGSFNPLTFGQGTKVEIK
modifications: vedotin (MMAE) payload
For orientation: EC50 means the midpoint of the concentration-response curve. Read a low EC50 as higher potency in that assay. As to B1, the EC50 with human SLC34A2 [1] amounted to 8.74 nM. Also, the EC50 with mouse SLC34A2 [2] is 412 nM. In the assay with human SLC34A2 [3], this molecule registered an ADCC reporter EC50 of 1.31 nM, an ADCC reporter Top (MFI) of 15700 MFI, an ADCC-HEK293 of 2.02 nM and an ADCC-OVCAR3 of 2.97 nM. Also, in the assay with human SLC34A2 [3], the Cytotoxic Effect - MDAH-2774 was 6.83 nM and the Cytotoxic Effect - OVCAR3 came to 0.325 nM. In the assay with rat SLC34A2 [4], this molecule returned an EC50 of 715 nM. Further, in the assay with human SLC34A2 [5], the EC50 was 8.25 nM. In assay [6], this molecule displayed an EC50 of 1080 nM.

B2: 62G10E4G8.p3.z8 hIgG1 (antibody, V domains shown)
VH: QVQLVQSGAEVKKPGASVKVSCKASGYTFPSYITHWVRQAPGQGLEWIGAIYPGNADTSYIQKFKGRVTMTADKSTSTVYMELSSLRSEDTAVYYCARGTYGTSAWFTYWGQGTLVTVSS
VL: EIVLTQSPATLSASPGERATLSCRARQNIGNNLYWYQQKPGQSPRLLIKYASQSISGIPSRFSGSGSGTDFTLTISSVQSEDFAVYFCQQSFSWPLTFGAGTKLEIK
notes: humanized hIgG1
As to B2, the EC50 with Rhesus SLC34A2 amounted to 2.5 nM; in the assay with human SLC34A2 [8] it was 4.42 nM; in the assay with human SLC34A2 [9] it was 8.61 nM; in the assay with human SLC34A2 [10] it was 8.61 nM; with human SLC34A2 [12], 11.1 nM. For the same molecule, the “Top (MFI)” value came out at 12200 MFI with Rhesus SLC34A2 and 30000 MFI in the assay with human SLC34A2 [10]. Besides, the binding result in the assay with mouse SLC34A2 [7] and with rat SLC34A2 [11] was “binds” throughout. In addition, the Top in the assay with human SLC34A2 [8] was determined as 31500 MFI; in the assay with human SLC34A2 [12], 10900 MFI.

B3: 62G10E4G8.p3.z11 hIgG1 (antibody, V domains shown)
VH: B2 VH with R38K, M70L, V79A
VL: B2 VL with A13V, V78L, A100Q
notes: humanized hIgG1
Consider B3, for which the 50% effective concentration (EC50) in the assay with Rhesus SLC34A2 worked out at 3.4 nM; with human SLC34A2 [8], 5.07 nM; with human SLC34A2 [9] it was 4.32 nM; with human SLC34A2 [10], 4.32 nM; in the assay with human SLC34A2 [12], 11.4 nM. In addition, the “Top (MFI)” value was found to be 14700 MFI in the assay with Rhesus SLC34A2 and 28200 MFI in the assay with human SLC34A2 [10]. The binding result with mouse SLC34A2 [7] and with rat SLC34A2 [11] was “binds” in each case. For the same molecule, in the assay with human SLC34A2 [13], the “ADCC reporter EC50” value came out at 3.78 nM. Besides, the “ADCC reporter Top (MFI)” value with human SLC34A2 [13] was determined as 116000 MFI. The Top with human SLC34A2 [8] came to 31900 MFI; with human SLC34A2 [12] it was 11300 MFI.
